The source of these data is article doi:10.1101/2021.03.25.436565.

What all share (assay): EMSA
Background: In EMSA bound probe runs differently from free probe, usually more slowly.

Data set [1] deals with T1, CSB-HD (helicase-like domain) (human, UniProt Q03468 498-1002).
Data set [2] addresses T1, CSB-HD (helicase-like domain). This is another data set of the same source.
The target is the same in data set [3]. The source holds these as a separate data set.
For data set [4] the target is unchanged. This is another data set of the same source.
The target is the same in data set [5]. This is another data set of the same source.

Like-named read-outs stand apart in the source and are kept apart here.

T1 sequence (Q03468 498-1002): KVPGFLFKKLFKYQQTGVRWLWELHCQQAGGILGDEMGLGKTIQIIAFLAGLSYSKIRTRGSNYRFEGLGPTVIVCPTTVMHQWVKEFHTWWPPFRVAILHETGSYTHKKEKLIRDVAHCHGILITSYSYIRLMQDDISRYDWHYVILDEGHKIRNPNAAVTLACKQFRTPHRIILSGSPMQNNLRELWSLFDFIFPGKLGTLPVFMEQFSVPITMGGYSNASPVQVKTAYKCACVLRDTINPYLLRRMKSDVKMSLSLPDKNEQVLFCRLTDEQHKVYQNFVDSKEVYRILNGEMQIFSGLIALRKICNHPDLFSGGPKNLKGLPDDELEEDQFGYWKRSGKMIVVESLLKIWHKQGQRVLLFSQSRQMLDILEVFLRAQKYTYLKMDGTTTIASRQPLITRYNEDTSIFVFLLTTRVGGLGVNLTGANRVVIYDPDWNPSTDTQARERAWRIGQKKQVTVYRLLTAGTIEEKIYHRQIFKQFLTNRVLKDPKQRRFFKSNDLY

The term Kd denotes the free concentration of one partner at which half of the binding sites on the other are occupied at equilibrium, for simple one-to-one binding. A low value points to a tighter complex. In turn, “5'-tailed rDNA, annealed in KCl (intermolecular G4)” yielded a Kd in data set [1] of 0.557 nM.
Turning to 3'-tailed rDNA, in data set [1], the Kd was 0.176 nM.
In the case of AAATGGGTGGGTAGGGTGGGTATAATTATAAATAAATAATA (structured_DNA) [3'-tailed c-MYC], in data set [2], the binding result is recorded as “no binding”.
Molecule ATAATTATAAATAAATAATAGGGTCGGGGGGTGGGGCCCGGGCCGGGG (structured_DNA) [5'-tailed rDNA-2] registered a dissociation constant (Kd) in data set [3] of 0.36 nM.
Still for that read-out and setting: the same measure for ATAATTATAAATAAATAATAGGGAGGGAGACGGGGGGG (structured_DNA) [5'-tailed rDNA-3]: 0.977 nM.
For the molecule TGAGGGTGGGTAGGGTGGGTAA (structured_DNA) [untailed c-MYC], the binding result in data set [4] is reported as “no binding”.
As to ATAATTATAAATAAATAATGGGGTTTTGGGG (structured_DNA) [5'-tailed O. nova d(G4T4G4)], the affinity in data set [5], expressed as Kd, was 0.00988 nM.
For AGGGTCGGGGGGTGGGGCCCGGGCCGGGG (structured_DNA) [untailed rDNA-2], in data set [4], the binding result is given as “no binding”.
